Substitutions are numbered along the chain they refer to. Numbers in names are those of the source.
B1: DN-SGK: SGK1 lacking the N-terminal 60 amino acids (protein)
chain: SQPQEPELMNANPSPPPSPSQQINLGPSSNPHAKPSDFHFLKVIGKGSFGKVLLARHKAEEVFYAVKVLQKKAILKKKEEKHIMSERNVLLKNVKHPFLVGLHFSFQTADKLYFVLDYINGGELFYHLQRERCFLEPRARFYAAEIASALGYLHSLNIVYRDLKPENILLDSQGHIVLTDFGLCKENIEHNSTTSTFCGTPEYLAPEVLHKQPYDRTVDWWCLGAVLYEMLYGLPPFYSRNTAEMYDNILNKPLQLKPNITNSARHLLEGLLQKDRTKRLGAKDDFMEIKSHVFFSLINWDDLINKKITPPFNPNVSGPNDLRHFDPEFTEEPVPNSIGKSPDSVLVTASVKEAAEAFLGFSYAPPTDSFL
modifications: left off: a dimerising Fc or GST
notes: SGK1 lacking the N-terminal 60 amino acids
B2: L155D: PDK1 mutant, Leu155 to Asp (protein)
chain: MARTTSQLYDAVPIQSSVVLCSCPSPSMVRTQTESSTPPGIPGGSRQGPAMDGTAAEPRPGAGSLQHAQPPPQPRKKRPEDFKFGKILGEGSFSTVVLARELATSREYAIKILEKRHIIKENKVPYVTRERDVMSRLDHPFFVKLYFTFQDDEKDYFGLSYAKNGELLKYIRKIGSFDETCTRFYTAEIVSALEYLHGKGIIHRDLKPENILLNEDMHIQITDFGTAKVLSPESKQARANSFVGTAQYVSPELLTEKSACKSSDLWALGCIIYQLVAGLPPFRAGNEYLIFQKIIKLEYDFPEKFFPKARDLVEKLLVLDATKRLGCEEMEGYGPLKAHPFFESVTWENLHQQTPPKLTAYLPAMSEDDEDCYGNYDNLLSQFGCMQVSSSSSSHSLSASDTGLPQRSGSNIEQYIHDLDSNSFELDLQFSEDEKRLLLEKQAGGNPWHQFVENNLILKMGPVDKRKGLFARRRQLLLTEGPHLYYVDPVNKVLKGEIPWSQELRPEAKNFKTFFVHTPNRTYYLMDPSGNAHKWCRKIQEVWRQRYQSHPDAAVQ
modifications: left off: small tags and cut ends
notes: PDK1 mutant, Leu155 to Asp

Experiments:
[1] = biological target: T1, PDK1-L155E (Homo sapiens, UniProt O15530, L155E); test: Phosphorylation of AGC kinase substrates by PDK1 (32P, PhosphoImager); assay type: biochemical; conditions: PKB[S473D] rate by PDK1-wt = 100
T1 construct: made in house; host or cells: human embryonic kidney 293 cells
T1 sequence (O15530 1-556 L155E): B2 chain with D155E
Description: (§1) Phosphorylation of AGC kinase substrates by PDK1. The phosphorylation of PDK1 substrates was performed in a final volume of 20 μl in a buffer containing 50 mM Tris-HCl pH 7.5, 0.1% (by vol) 2-mercaptoethanol, 10 mM magnesium chloride, 100 μM [γ-^32P]ATP (˜1000 c.p.m./pmol), 0.5 μM microcystin-LR, 0.6 μM AGC kinase substrate and 0.6 to 30 nM wild type PDK1 or the indicated mutant of PDK1.
(§2) Relative phosphorylation of PDK1 substrates. PDK1 substrates were phosphorylated in vitro, subjected to SDS-PAGE, and radioactivity associated with the bands measured using a Phospho-Imager and known amounts of ATP as standard. The phosphorylation rate of PKB[S473D] in the presence of PtdIns (3,4,5)P3 was 2.6 mol/mol PDK1/min and was taken as the relative value of 100. Average values from a representative experiment performed in duplicates are shown.

[2] = biological target: T2, PDK1-wt (Homo sapiens, UniProt O15530); test: as above; assay type: biochemical
T2 construct: made in house; host or cells: human embryonic kidney 293 cells
T2 sequence (O15530 1-556): B2 chain with D155L
Description: as §1, §2

[3] = biological target: T3, PDK1 (Homo sapiens, UniProt O15530); test: Glutathione-Sepharose pull-down of PDK1 with S6K1 or SGK1 from 293 cells; assay type: binding; conditions: GST-SGK1 forms; wild type Myc-PDK1
T3 construct: Full length PDK1 (residues 1-556); made in house; host or cells: 293 cells
T3 sequence (O15530 1-556): B2 chain with D155L
Description: FIG. 21. Interaction of S6K1 and SGK1 with PDK1. 293 cells were transiently transfected with DNA constructs expressing GST, GST-PDK1 wt or PDK1 L155E together with constructs expressing either wild type or the indicated mutants or truncations of HA tagged S6K1 (A) or wild type GST-ΔN-SGK1 or 422D mutant. 36 h post transfection the cells were lysed and GST fusion protein was purified by affinity chromatography on glutathione-Sepharose beads. Aliquots were electrophoresed on a 10% SDS-polyacrylamide gel, stained with Coomassie Blue, or immunoblotted using an anti-FLAG antibody to detect FLAG-S6K1 and anti-Myc antibody to detect Myc-PDK1. To establish that the wild type and mutant proteins were expressed at similar levels, […] of total lysate was electrophoresed on a 10% SDS-polyacrylamide gel and immunoblotted using the indicated antibodies. Duplicates of each condition are shown. Similar results were obtained in two different experiments.
Binding of PDK1 to SGK1 and S6K1. For the data presented in FIG. 22, 293 cells were cotransfected with 10 μg of the wild type or mutant PDK1 plasmid and 10 μg of either the wild type or mutant S6K1 or SGK1. […] The gels were either stained with Coomassie blue, or analysed by immunoblotting with either anti-Flag or anti-Myc antibodies (described below).

[4] = biological target: T4, GST-PDK1 (Homo sapiens, UniProt O15530); test: Thermal denaturation of PDK1 (TM50); assay type: biochemical; conditions: heated 2 min; no PIFtide
T4 construct: Full length PDK1 (residues 1-556); made in house; host or cells: 293 cells
T4 sequence (O15530 1-556): B2 chain with D155L
From the text: A further aspect of the invention provides the use of an interacting polypeptide as defined above, for example comprising the amino acid sequence Phe/Tyr-Xaa-Xaa-Phe/Tyr or an interacting compound of the invention in a method of stabilising a protein kinase having a hydrophobic pocket in the position equivalent to the hydrophobic pocket of Protein Kinase A (PKA) that is defined by residues including Lys76, Leu116, Val80 and/or Lys111 of full-length mouse PKA, wherein the protein kinase is exposed to the compound or polypeptide. Stabilisation may be measured by measuring the TM50 value. The TM50 value is the temperature at which heating for two minutes produces a 50% reduction in protein kinase activity (measured using any appropriate substrate) compared with the protein kinase activity before such heating, as described in Example 2. An increase in the TM50 value, for example by at least about 1, 2, 3, 4, 5, 6, 7, 8, 9, 10 or 15° C. indicates stabilisation.
FIG. 12. PDK1 is activated and stabilised through its interaction with PIFtide. (A) GST-PDK1 activity was measured in the presence of increasing concentrations of wild type (wt) PIFtide (closed circles) or a mutant D978A PIFtide (open circles) using the synthetic peptide substrate termed T308tide, as described in Material and Methods. The data was fitted to a hyperbola using the Kaleidagraph™ software. […]

Row | Molecule | Relative phosphorylation of PDK1 substrates PDK1-L155E +PIFtide ([1]; with PIFtide) | Relative phosphorylation of PDK1 substrates PDK1-L155E — ([1]; without PIFtide) | phosphorylated at a lower rate than SGK1[T422D] [2] [fold] | Relative phosphorylation of PDK1 substrates PDK1-wt +PIFtide ([2]; with PIFtide, PKB[S473D] rate with PtdIns(3,4,5)P3 = 100) | Relative phosphorylation of PDK1 substrates PDK1-wt — ([2]; without PIFtide, PKB[S473D] rate with PtdIns(3,4,5)P3 = 100) | interaction with Myc-PDK1 [3] | TM50 value [4] [°C]
1 | B1 | 2.4 | 3.3 | 10 | 3.8 | 8 | did not interact | –
2 | B2 | – | – | – | – | – | – | 42

Reference: patent US20080009025A1, “PROTEIN KINASE REGULATION” (priority 1999, published 2008)
